Read-outs that look alike come from different tables or passages of the source.
Test system: HEK cells
Experiment: Transient DNA transfection of HEK cells, Annexin/Sytox staining, flow cytometry
Assay type: cell-based, human
Conditions: for pyroptosis, Sytox staining: with TEVP / cognate protease
Experimental: HEK cells were transiently co-transfected with DNA encoding the circuits, often along with Cherry, a fluorescent protein marker, and cells were analyzed by flow cytometry 16 to 24 hours later. To quantify cell death, the cells were strained with Annexin, Sytox, or both. Annexin stains apoptotic cells by binding to phosphatidylserine exposed on the outer leaflet, and pyroptotic cells by binding to phosphatidylserine in the inner leaflet after membrane permeabilization. In contrast, Sytox, a membrane-impermeable dye, primarily stains pyroptotic cells. Therefore, apoptotic cells are typically Annexin-high and Sytox-low, while pyroptotic cells are Annexin-high and Sytox-high (FIG. 7B). For simplicity, in experiments involving only a single death mode, a single relevant dye was often used. To focus on cells influenced by the circuits, the fraction of Annexin- or Sytox-positive cells was calculated after gating on the fluorescent co-transfection marker (FIG. 7C).
On the day before transfection, HEK cells were seeded at a density of 0.3-0.6 million cells per well on a 12-well plate, 0.1-0.3 million cells per well on a 24-well plate, or 15,000-50,000 cells per well on a 96-well plate. The cells were allowed to attach to the plate overnight, for at least 8 hours. On the day of transfection, we treated the cells with purified DNA plasmids encoding circuit components. In addition to plasmids encoding circuit components, we often included a plasmid encoding a fluorescent co-transfection marker, at roughly 50 ng DNA per well on a 24-well plate. Given the different number of molecular components in each synthetic circuit and their various relative ratios, the total amount of DNA ranged from 50 to 1 μg per well on a 24-well plate, and was scaled by […] when other 12-well or 96-well plates were used, respectively. On the same plate, we often equalized the total amount of DNA across all transfected wells, using a filler plasmid encoding the neomycin resistance gene. To transfect cells with plasmid DNA, we used three types of transfection reagents—Lipofectamine 2000 (Thermo Fisher), Lipofectamine 3000 (Thermo Fisher), and FuGENE HD (Promega), according to manufacturers' instructions. Briefly, for a typical transfection experiment on a 24-well plate, we mixed plasmids and the transfection reagent, around 200 ng of DNA per 1 μl of Lipofectamine 2000, in 25 μl of Opti-MEM reduced serum medium (Thermo Fisher), incubated the mixture for 5-10 min at room temperature, and then added another 25 μl of Opti-MEM before transferring the mixture dropwise to culture wells. We also performed some transfection experiments using the Lipofectamine 3000 kit (Thermo Fisher), at a ratio of 2,000 ng of DNA, 2 ul of 4 ul of P3000, and 3 μl of Lipofectamine 3000. We similarly diluted the mixture in Opti-MEM before adding it to cells. For transfection with FuGENE, we used a ratio of 4 μl FuGENE:1 μg of DNA, and incubated the DNA-FuGENE mixture at room temperature for 5 min before transfection. To enable protein expression from plasmids with a doxycycline-inducible promoter, doxycycline was added to the cell culture at a final concentration of 100 ng/mL. In experiments involving Q-VD-OPh, the compound was added to the cell culture at a final concentration of 30 μM, immediately after the cells received the transfection mixture. To transfect cells with in vitro transcribed mRNA, Lipofectamine MessengerMax (Thermo Fisher) was used. Briefly, for transfection of one well in a 96-well plate, 0.1 μL of Lipofectamine MessengerMAX was diluted in 1.25 μL Opti-MEM and incubated for 10 minutes at room temperature. mRNA was then added to Opti-MEM to the appropriate conditions at the following amounts: 12.5 ng of fluorescent co-transfection marker, 56.25 ng of protease, and 56.25 ng of engineered executioner. Diluted mRNA was then added to diluted MessengerMAX reagent and incubated for 5 minutes at room temperature before addition to Jurkat or THP-1 cells in RPMI media. […]

[1] = co-transfected with wildtype GSDME, TEVP and TEVP-activatable caspase-3

B1: silencer: leucine zipper-fused GSDMA C-terminal domain; SEQ ID NO: 43 (protein)
chain: MGSEQLEKKLQALEKKLAQLEWKNQALEKKLAQGGSGSSMHEDFKTLKEEVQRETQEVEKLSPVGRSSLLTSLSHLLGKKKELQDLEQKLEGALDKGQKVTLEALPKDVLLSKDAMDAILYFLGALTELTEEQLKILVKSLEKKILPVQLKLVESTLEQNFLQDKEGVFPLQPDLLSSLGEEELTLTEALVGLSGLEVQRSGPQYAWDPDTRHNLCALYAGLSLLHLLSRKSNALTYCALS
inhibition of pyroptosis induced by wildtype GSDMA N-terminal domain: did not inhibit pyroptosis
inhibition of pyroptosis induced by zipper-attached GSDMA N-terminal domain (GSDMA N-Z): markedly suppressed pyroptosis
inhibition of pyroptosis induced by zipper-attached GSDMA N-terminal domain (GSDMA N-Z) (listed as GSDMA Z-C): potently inhibited an engineered active executioner

B2: FIG. 1D, third module: GSDMA N-terminal domain fused to TEVP-removable degron; SEQ ID NO: 18 (protein)
chain: MGSPVFEDVTRALVRELNPRGDLTPLDSLIDFKHFRPFCLVLRKRKSTLFWGARYVRTDYTLLDLLEPGSSPSDLTDSGNFSFKNMLDVQVQGLVEVPKTVKVKGTAGLSQSSTLEVQTLSVAPSALENLKKERKLSADHSFLNEMRYHEKNLYVVMEAVEAKQEVTVEQTGNANAIFSLPSLALLGLQGSLNNNKAVTIPKGCVLAYRVRLLRVFLFNLWDIPYICNDSMQTFPKIRRVPCSAFISPTQMISEEPEEEKLIGEGGSGLENLYFQSGSGSISLIAALAVDYVIGMENAMPWNLPADLAWFKRNTLNKPVIMGRHTWESIGRPLPGRKNIILSSQPSTDDRVTWVKSVDEAIAACGDVPEIMVIGGGRVIEQFLPKAQKLYLTHIDAEVEGDTHFPDYEPDDWESVFSEFHDADAQNSHSYCFEILERR
pyroptosis, Sytox staining: removal of the degron by TEVP also induced pyroptosis

B3: FIG. 1D, fifth module: GSDMA N-terminal domain fused to TEVP site-caged N-degron; SEQ ID NOs: 20, 40 (protein)
chain: MGSENLYFQRHKSGAWKLPVSLVKPVFEDVTRALVRELNPRGDLTPLDSLIDFKHFRPFCLVLRKRKSTLFWGARYVRTDYTLLDLLEPGSSPSDLTDSGNFSFKNMLDVQVQGLVEVPKTVKVKGTAGLSQSSTLEVQTLSVAPSALENLKKERKLSADHSFLNEMRYHEKNLYVVMEAVEAKQEVTVEQTGNANAIFSLPSLALLGLQGSLNNNKAVTIPKGCVLAYRVRLLRVFLFNLWDIPYICNDSMQTFPKIRRVPCSAFISPTQMISEEPEEEKLIGEMGSENLYFQRHKSGAWKLPVSLVKPVFEDVTRALVRELNPRGDLTPLDSLIDFKHFRPFCLVLRKRKSTLFWGARYVRTDYTLLDLLEPGSSPSDLTDSGNFSFKNMLDVQVQGLVEVPKTVKVKGTAGLSQSSTLEVQTLSVAPSALENLKKERKLSADHSFLNEMRYHEKNLYVVMEAVEAKQEVTVEQTGNANAIFSLPSLALLGLQGSLNNNKAVTIPKGCVLAYRVRLLRVFLFNLWDIPYICNDSMQTFPKIRRVPCSAFISPTQMISEEPEEEKLIGE
pyroptosis, Sytox staining: allowed protease-mediated suppression of pyroptosis

B4: wildtype GSDME: natural substrate for caspase-3; SEQ ID NO: 21 (protein)
chain: MGFAKATRNFLREVDADGDLIAVSNLNDSDKLQLLSLVTKKKRFWCWQRPKYQFLSLTLGDVLIEDQFPSPVVVESDFVKYEGKFANHVSGTLETALGKVKLNLGGSSRVESQSSFGTLRKQEVDLQQLIRDSAERTINLRNPVLQQVLEGRNEVLCVLTQKITTMQKCVISEHMQVEEKCGGIVGIQTKTVQVSATEDGNVTKDSNVVLEIPAATTIAYGVIELYVKLDGQFEFCLLRGKQGGFENKKRIDSVYLDPLVFREFAFIDMPDAAHGISSQDGPLSVLKQATLLLERNFHPFAELPEPQQTALSDIFQAVLFDDELLMVLEPVCDDLVSGLSPTVAVLGELKPRQQQDLVAFLQLVGCSLQGGCPGPEDAGSKQLFMTAYFLVSALAEMPDSAAALLGTCCKLQIIPTLCHLLRALSDDGVSDLEDPTLTPLKDTERFGIVQRLFASADISLERLKSSVKAVILKDSKVFPLLLCITLNGLCALGREHS
mode of cell death, Sytox and Annexin double staining (background of TEVP activating TEVP-activatable caspase-3): caused pyroptosis in response to TEVP-mediated caspase-3 activation
cell death by the protein alone (without caspase-3 activation): alone did not induce cell death

B5: I217N: GSDME N-terminal domain mutant I217N; SEQ ID NO: 22 (protein)
chain: MGFAKATRNFLREVDADGDLIAVSNLNDSDKLQLLSLVTKKKRFWCWQRPKYQFLSLTLGDVLIEDQFPSPVVVESDFVKYEGKFANHVSGTLETALGKVKLNLGGSSRVESQSSFGTLRKQEVDLQQLIRDSAERTINLRNPVLQQVLEGRNEVLCVLTQKITTMQKCVISEHMQVEEKCGGIVGIQTKTVQVSATEDGNVTKDSNVVLEIPAATTNAYGVIELYVKLDGQFEFCLLRGKQGGFENKKRIDSVYLDPLVFREFAFIDMPD
inhibition of wildtype GSDME N-induced pyroptosis: capable of inhibiting the wildtype counterpart
pyroptotic activity of GSDME N-terminal domain mutant: defective in inducing pyroptosis
apoptosis, Annexin levels [1]: permitting caspase-3-induced apoptosis, as read out by high Annexin levels
pyroptosis, Sytox uptake [1]: suppressed pyroptosis, as evidenced by reduced Sytox uptake
pyroptosis, Sytox uptake (co-transfected with wildtype GSDME, TEVP and TEVP-activatable caspase-3, listed as GSDME inhibitor): pyroptosis could be attenuated to various degrees
inhibition of wildtype GSDME N-induced pyroptosis (listed as GSDME N(mut)): inhibited wildtype GSDME N-induced pyroptosis

B6: FIG. 1D, fourth module: GSDMA N-terminal domain with internal TEVP cleavage site; SEQ ID NO: 19 (protein)
chain: MGSPVFEDVTRALVRELNPRGDLTPLDSLIDFKHFRPFCLVLRKRKSTLFWGARYVRTDYTLLDLLEPGSSPSDLTDSGNFSFKENLYFQSNMLDVQVQGLVEVPKTVKVKGTAGLSQSSTLEVQTLSVAPSALENLKKERKLSADHSFLNEMRYHEKNLYVVMEAVEAKQEVTVEQTGNANAIFSLPSLALLGLQGSLNNNKAVTIPKGCVLAYRVRLLRVFLFNLWDIPYICNDSMQTFPKIRRVPCSAFISPTQMISEEPEEEKLIGE
pyroptosis, Sytox staining: abolished its activity

B7: tobacco vein mottling virus protease (protein)
chain: MGSSKALLKGVRDFNPISACVCLLENSSDGHSERLFGIGFGPYIIANQHLFRRNNGELTIKTMHGEFKVKNSTQLQMKPVEGRDIIVIKMAKDFPPFPQKLKFRQPTIKDRVCMVSTNFQQKSVSSLVSESSHIVHKEDTSFWQHWITTKDGQCGSPLVSIIDGNILGIHSLTHTTNGSNYFVEFPEKFVATYLDAADGWCKNWKFNADKISWGSFTLVEDAPEDDFMAKKTVAAIMDS
notes: viral input protease
activation of cognate engineered GSDMs containing the cleavage sites (tev, tvmv and hcv sites): orthogonally activated their cognate engineered GSDMs

Source: US20250152743A1, “SYNPOPTOSIS CIRCUITS FOR PROGRAMMABLE CELL DEATH CONTROL” (California Institute of Technology, priority 2023, published 2025)
